The source of these data is publication PMC12505966, “Soluble MFGE8 mediates cell entry of Crimean-Congo hemorrhagic fever virus” (mBio, 2025).

A value given as a limit tells only on which side of the number the result lay.

This assay has as its target T1, CCHFV Gc monomer (Gc10200 aa 1,041-1,579, Strep-Tag II) (Crimean-Congo hemorrhagic fever virus, …, UniProt Q8JSZ3 1041-1579).
T1 construct: also called Gc protein; recombinant Gc monomer
T1 sequence: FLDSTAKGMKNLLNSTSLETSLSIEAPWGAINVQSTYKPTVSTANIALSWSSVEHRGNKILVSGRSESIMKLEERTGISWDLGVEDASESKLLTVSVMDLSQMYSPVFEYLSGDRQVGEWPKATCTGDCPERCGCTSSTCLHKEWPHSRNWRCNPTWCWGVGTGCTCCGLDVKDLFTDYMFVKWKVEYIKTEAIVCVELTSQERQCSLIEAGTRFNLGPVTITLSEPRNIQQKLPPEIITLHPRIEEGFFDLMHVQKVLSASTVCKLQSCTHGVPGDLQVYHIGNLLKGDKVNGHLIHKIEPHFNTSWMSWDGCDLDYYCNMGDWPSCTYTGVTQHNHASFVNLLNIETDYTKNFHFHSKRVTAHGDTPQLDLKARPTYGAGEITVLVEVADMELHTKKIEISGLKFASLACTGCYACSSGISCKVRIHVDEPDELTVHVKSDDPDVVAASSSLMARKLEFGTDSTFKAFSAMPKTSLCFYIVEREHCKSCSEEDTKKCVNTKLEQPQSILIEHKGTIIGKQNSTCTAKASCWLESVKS
Briefly: BLI; ForteBio Octet Red; […] (15 µg/mL) […]; PBS with 0.02% Tween 20 and 0.1% BSA; 1/1 binding model. To be noted: both partners purified. Background: In BLI a coated tip is dipped into the sample, and binding shifts an interference pattern.

B1: Human recombinant MFGE8 protein with His tag at the C-terminus (natural protein, UniProt Q08431 24-387, looked up)
chain: LDICSKNPCHNGGLCEEISQEVRGDVFPSYTCTCLKGYAGNHCETKCVEPLGLENGNIANSQIAASSVRVTFLGLQHWVPELARLNRAGMVNAWTPSSNDDNPWIQVNLLRRMWVTGVVTQGASRLASHEYLKAFKVAYSLNGHEFDFIHDVNKKHKEFVGNWNKNAVHVNLFETPVEAQYVRLYPTSCHTACTLRFELLGCELNGCANPLGLKNNSIPDKQITASSSYKTWGLHLFSWNPSYARLDKQGNFNAWVAGSYGNDQWLQVDLGSSKEVTGIITQGARNFGSVQFVASYKVAYSNDSANWTEYQDPRTGSSKIFPGNWDNHSHKKNLFETPILARYVRILPVAWHNRIALRLELLGC
notes: also called milk fat globule-EGF factor 8 protein; lactadherin; not shown: His tag, C-terminal, kept
In the case of B1, the Kd (commonly the equilibrium constant for the complex coming apart) was < 1 pM.
